Here are results for 4 molecules from publication PMC13395437, “A single DNA methylation site regulates cell fate during Clostridioides difficile sporulation”.

Series [1] addresses T1, Spo0A DNA-binding domain (Spo0A145-247-His6) (UniProt P52938).
T1 sequence: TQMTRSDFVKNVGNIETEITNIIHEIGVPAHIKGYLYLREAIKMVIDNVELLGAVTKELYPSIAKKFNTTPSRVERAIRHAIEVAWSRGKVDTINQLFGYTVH
Kind of series: EMSA. Particulars: FP: 1 nM dsDNA, 50 mM Tris-HCl pH 8, 100 mM KCl, 2.5 mM MgCl2, 0.2 mM DTT, 10% glycerol, 2 µg salmon sperm DNA, 10 min, RT; EMSA: 20 fmol DNA, 10 mM Tris-HCl …. (A gel shift assay detects complexes by their altered migration in electrophoresis.)

Series [2] concerns the target T2, Spo0A DNA-binding domain (Spo0A145-247-His6) (UniProt P52938 145-247).
T2 sequence: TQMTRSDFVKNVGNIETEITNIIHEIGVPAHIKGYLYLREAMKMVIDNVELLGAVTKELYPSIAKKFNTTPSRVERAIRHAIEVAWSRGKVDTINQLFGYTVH
The experiment in a line: fluorescence polarization; FP: 1 nM dsDNA, 50 mM Tris-HCl pH 8, 100 mM KCl, 2.5 mM MgCl2, 0.2 mM DTT, 10% glycerol, 2 µg salmon sperm DNA, 10 min, RT; EMSA: 20 fmol DNA, 10 mM Tris-HCl pH 7.6, 1 mM EDTA, 50 mM NaCl, 1 mM DTT, 5% glycerol, 30 min, 37 C. Particulars: protein: recombinant; tags: C-terminal His6; label: 6FAM on strand 1 (5' primer); blunt. Background: In fluorescence polarisation assays a small probe gives low polarisation when free and higher when bound to something large.

With “CCTCCTCTTTTGTTTATATTAAGAATTGTAACAAAGAGGAGTAATTTTATTTGTCATAATCGGTTTTAAAAATCAAAAAATATTAATACATTTTTTTTGACTTTTGACATATTAAGCCTTCCAAATTATCGTATTCACTTACGGTTATTTCTTCTATTTCTAATTTTTCCATTATTATATTCAATATTTTTACACCAGCAGTTATAATATCCGCACGTTTTTCTTGTAGCCCTTTTAAGTTCTTTTTATCAC (double strand) [Me3* PspoIIE EMSA fragment]”, the binding result in series [1] was “binds”.
The same measure, in the same setting: the entry for “CCTCCTCTTTTGTTTATATTAAGAATTGTAACAAAGAGGAGTAATTTTTTTTGTCATAATCGGTTTTAAAAATCAAAAAATATTAATACATTTTTTTTGACTTTTGACATATTAAGCCTTCCAAATTATCGTATTCACTTACGGTTATTTCTTCTATTTCTAATTTTTCCATTATTATATTCAATATTTTTACACCAGCAGTTATAATATCCGCACGTTTTTCTTGTAGCCCTTTTAAGTTCTTTTTATCAC (double strand) [WT PspoIIE EMSA fragment]” is “binds”.

B1: WT PspoIIE FP probe (dsDNA)
DNA 1: AAAACCGATTATGACAAAAAAAATTACTCC
DNA 2: GGAGTAATTTTTTTTGTCATAATCGGTTTT
For B1, the binding result in series [2] is on record as “binds”.

B2: Me3* PspoIIE FP probe (dsDNA)
DNA 1: AAAACCGATTATGACAAATAAAATTACTCC
DNA 2: GGAGTAATTTTATTTGTCATAATCGGTTTT
Consider B2, for which the binding result in series [2] is listed as “binds”.
